# Test system: K4 kissing-loop RNA reporter
# Assay: apparent KD of K4 kissing-loop reporter; higher = weaker reporter binding
# Settings: Eterna round: R107; input ligand: theophylline 20 uM
# Protocol: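 RNA-MaP round R107: designed RNA switches with theophylline, tryptophan, arginine or FMN aptamers are transcribed on-chip within common flanks. They are titrated with a labelled K4 kissing-loop RNA reporter in RNA-MaP buffer (100 mM Tris pH 7.5, 80 mM KCl, 4 mM MgCl2), without ligand or with the indicated ligand. Median apparent KD per design.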
# 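Also: bound reporter read as fluorescence of individual clusters on recovered sequencing chips by microscopy, with normalized cluster intensities fitted with a binding model.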
row,Sequence,apparent KD of K4 kissing-loop reporter [µM]
1,CAGGCGACUAUCGAUACCAGAUGAUAUCGACUACUUGAGUGAUGUUCGAUUAAAGGCAUUAUCCCUUGGCAGCGACUGGACACAU [theeternabot_sameState_KL_Theo_B_24],0.659
2,UAAGAUAUGAGGGAUACCAGCCAUAAGGAAAGUGUGAUGAGUGAUGUUCUGACAAGCCAAGGCCCUUGGCAGCUUUAAUAGCAUC [whbob_SS_Theo_B_th76],0.218
3,UCCUGCAAUCUGCCACGAAAGUGGGUUGAUACCAGAGUCGAAAGACUCCCUUGGCAGCGAGUGAUGUUCGUUGCAGGUGUUUAAA [MatMod 11 - Jieux - Exclusion - Theophylline A],0.217
4,AUUUGUUUAUGUGAUACCAGACUUUGCAGUGAUGUUGCAUUUAUUUUAGAAGAAUAGUUUGUCCCUUGGCAGCACUAUGUAUUUA [JR_SSTheophyB_Sub006],0.0807
5,UGCACCAGUGAUGUUGGUCGGCACCGAGAUACCAGCUGAUCUCUUAGCCCUUGGCAGCUCUUUAUUCGCGUUAUCAGUUUCUUCG [theeternabot_sameState_KL_Theo_A_16],0.416
6,AUGCGACGUGCGGCCGCCACUCGGAUGCGAGUGAUGUUCGCGGGACGGACGCAAGUCCGUCAUUCGAGGACCGGGCAUCGGUGUA [#2 Same State - Tryptophan B Attempt #2 (HarryS)],0.512
7,GUUACGCAUGGAAGGAGCGCAGGCUCAACAAAUAGCUCAGUGAUGUUGAGCAAAUUAAAACUGCAGGUAGGUCGCCAUGUGUAAC [Ex Arginine B K4 22],0.371
8,AAUGCAUAGUGAAGGAGCGCGAUAAGCAGUGAUGUUGCUUAGCUAUUAUUCAUUUUUUUAACGCAGGUAGGUCGCACUUUGCAUA [JR_ExcArginiB_Sub016],0.148
9,CAAACGUGCGGUAGGUUCAAGCGCUGGGAAGGAGCGCAGAUGACUGCAGGUAGGUCGCCCAGUGAUGUUGGGCUUUCCACCUACG [Dilausma],0.138
10,GGUUCCUCAGUGAUGUUGAGGUGACCUCGGCAGGAUAUAGGCAUUACUAGAAGGGCCAAAAGAAUCCUGUGCAGCAACACAGGGA [Usrasoza],0.257
11,AGGAGCGUGCGAUGGAAAUCGCACGCUCCUCGAGGACCGGUACGGCCGCCACUCGCUCGCGCCGAGUGAUGUUCGGCCGGCGAAG [#2 Same State - Tryptophan A Attempt #16 (HarryS)],0.0586

# Same assay, conditions: Eterna round: R107; input ligand: tryptophan 2.4 mM
row,Sequence,apparent KD of K4 kissing-loop reporter [µM]
1,AAAUUUAAUAUAUUUAAAUAAAUAUGUGAUACCAGACAUUUAUAAGUCCCUUGGCAGCACAAUGCAGUGAUGUUGCUUAUAAUAA [JR_SSTheophyA_Sub017],0.0735
2,GAUAAAUUGAUGCGUAGUGAUGCACGGGAAGGAGCGCGUUUUUUCGCAGGUAGGUCGCCCGACUGCGCGUUUCGAGUGAUGUUCG [5.)],0.172
3,GCCGUAGAUUGAAGGAGCGUGGACCUAUCGCUUGAACAGUGAUGUUGUUUAUCUAGGGAGCCGCAGGUAGGUCGCAAUCUACGGC,0.386
4,UACGCUUACUUGCGCGGUCCGAUUAACGAUACCAGCGAAGAAGCCCGCCCUUGGCAGCGUUAUAGAGUGAUGUUCACGGAGAUUA [theeternabot_sameState_KL_Theo_A_12],0.874
5,GAUAUAGUGAUGUUAUAUACUGAUAGACAACGAGGACCGGUACGGCCGCCACUCGAGAGGGUGAAAAUGGUGAUAAAAUAAUGAU [#03 K4 Tryptophan A Exclusion],0.274
6,UGAUUUAACUGAAGGAGCGGCAAUUGAGAAGGAAAUAUAGUGAUGUUAUAUAAGAGAGAGAGCCAGGUAGGUCGCAGAGGGAGGA [ExArgB.G],0.118
7,UAGUCCUAGUGAUCCUUAUCAAGUGGUGGGCGAGGACCGGUACGGCCGCCACUCGACUAUGCAGUGAUGUUGUAAUCCGGACAAU [Exclusion - Tryptophan A (Freestyle 12)],0.541
8,AUGUCUUAUAAACUCGUGGUUUCGAUCGAUACCAGUAGCGAGAGUUACCCUUGGCAGCGACAUGAGUGAUGUUCAUGUACGAAGA [KL-XTheoA4],0.0929
9,UUUCUAUCGGGAAGGAGCGUGAAUGAUAAUGGAUAUAGUGAUGUUAUAUAUAAGAACGAAUCGCAGGUAGGUCGCCCGGAUGACU [SSArgB.R],0.169
10,AAGCAGUCACUCGAAGCCAUCGAAGAUGGUCGAGGACCGGUACGGCCGCCACUCGGAGUGAUGUUCCGAAGACUGCAAAAUAAAA [#SwitchBubble 11],0.526
11,UAGGCGGGAGAAGGAUAUCUGUGAAACCUGCUGCCCAAUAAGUGAUGUUUAUAAAGGAAGCGUCAUAGAGAAGGUCUAACAAGUA [theeternabot_sameState_KL_FMN_B_1],0.814
12,AUACAGCGACGCGCUAGUGAUGUUAGCGAAGGAGCGACUCAUGAGUCAGGUAGGUCGCGCUAACGUGGUUACGAGAGUAACCAGU [Arg A Ex t1a],0.0894
13,CAUACGCAUGGAGGAUAUGAGAUUUCUCAUGUCAUUUAAUAUUCUCAGUGAUGUUGAGAAUUUGGCUCAGAAGGCCAUGUGUAUG [Ex FMN B 20],0.403
14,AUUAAUAUCACGGCCGCCACUGAAUAUUGUUUUUAUAUUUAGAAAUCUUGCCAGUGAUGUUGGAUCAGGACCGGGUGAGUUUAUA [JR_SSTryptoB_Sub006],0.444
15,CUAUGGAAACAUAGUAGUCGGGAAACCGAUACCAGUAUGGAAACAUACCCUUGGCAGCGGAAUGAUUAAACGGAGUGAUGUUCCG [Theophylline A K4 18],0.25
16,UUUAUAUUCUGAGGAUAUCGUAUUAAUGAAGUGAUGUUUCAGUAUAUUCUAAUUAUAUAUAAUUUUCGAGAAGGCAGUAUUAUUU [JR_Nu3_SSFMNB_Sub028],0.196
17,GGUUUAUAGGAGGAUACCAGUACGGAUAAAGUACAUUAAUAGUAGAGUGAUGUUCUAAAGUACCCUUGGCAGCUUAGAUUAAGUU [ExTheophylB.I],0.074
18,UGAUACCAGACGGCCGCCACUCCCGCAGGUCAAAGACCUGCGAAGAAGGUUCUUCAGUGAUGUUGGAGGACCGGGUCUGGUAUCU [FiskerMod 22 - Jieux - Exclusion - Tryptophan B],0.369
19,AAAUAAGCUCAUGAUACCAGCCAGUGAUGUUGGUUGGUCCACCGUGUCCGAACAUUAAGCGGCCCUUGGCAGCAUGAUGCGCGUA [Xearxea],0.118
20,UGACAUUGCUCAGAUACCAGACUUGAGGAUCACCCAAGUGCCAAACGUACAAUAAUAAAAGUCCCUUGGCAGCUGAGCAAUGUCU [TheoBX 14],0.0621
21,AAGCAGUCACUCGAAACCAUCGAAGAUGGGCGAGGACCGGUACGGCCGCCACUCGGAGUGAUGUUCCGAAGACUGCAAAAUAAAA,0.354
22,CCAUCGCUAUUCGAUACCAGUCAUUUUUUAUUUUAUUUUUUUUUUGGAGUGAUGUUCCAAGACCCUUGGCAGCGAAUAGUGAUGG [whbob_SS_Theo_B_th78],0.106

row,Sequence,apparent KD of K4 kissing-loop reporter [µM]
1,AUUUUUUUGUCAGGAUAUUAGUGUGCGUUUGGUUUGUUAGUGAUGUUGAUAUUUGGUUUAUGUAUUUAAGAAGGGAUUUAGCGGU [dhbbtemullin],0.357
2,AAAAUUAACAAGAGUGAUGUUCUUGUUAGACAGGAUAUCGGUUUAACGAGAAGGGUCGUGGCUCCAUUGGGCCCAGUGGUUCACC [Mazareri],0.439
3,UUCGUAGUAGGAAACUAUUACGAAAAGGAAGGAGCGGCGAAGAAGCCAGGUAGGUCGCCUAUUGACAGUGAUGUUGUUAUGUAGA [#9],0.142
4,AGAGUGAUGUUUUUUUGAAGUGAGUAAUGUCGAGGACCGGUACGGCCGCCACUCGAGUGAUGUUAGUGAUGUUGAUGUAGUGAUG [?lmullin],0.127
5,UAAGAAUAAGUAGCAGUGAUGUUGCUACUGCGAGGACCGGUACGGCCGCCACUCGAGUCCUCGAAACAUCACUGAACGAGGAAUA [whbob_SS_Tryp_A_m11],0.27
6,UUAGUCUAGAGAAGGAGCGCAGUGAUGUUGCGGUAUGUGAAAAUAUGUAUAUAAUAAUAAAUGCAGGUAGGUCGCUCUAGACAUU [AK2 Exc Arginine B],0.0543
7,AUUUUUUUGUCAGGAUAUUAGUAUGCUUUUGGUUUGUUAGUGAUGUUGAUAUUUUGUUUAUGUAUUUAAGAAGGGAUUUAGCGGU [etvuumullin],0.255
8,AAGUGUUCUAGUGAUACCAGACAUUUCUAUUACAUUAAUAUAGCUAAGUGAUGUUUAGCAGUCCCUUGGCAGCACUAUUUCACUA [JR_SSTheophyB_Sub015],0.191
9,AAGCCAGAGAUUGCUGCGGGUUCCAGAGAUACCAGCCGUAUUGAAGGCCCUUGGCAGCUCGAGUGAUGUUCGAGCCGUCUCUAGC [Bisore],0.11
10,UCUCAGGAGUGAUGUUCCGUAGGUGGAAGGAAGGAUAUCUAAUGGCAGAGAAGGUCCAUCCUUGCUCGUAUCAGUGCCGGGAAGC [theeternabot_exclusion_KL_FMN_A_13],0.168
11,CAGGCGACUAUCGAUACCAGAUGAUAUCGACUACUUGAGUGAUGUUCGAUUAAAGGCAUUAUCCCUUGGCAGCGACUGGACACAU [theeternabot_sameState_KL_Theo_B_24],0.414
12,UAAGAUAUGAGGGAUACCAGCCAUAAGGAAAGUGUGAUGAGUGAUGUUCUGACAAGCCAAGGCCCUUGGCAGCUUUAAUAGCAUC [whbob_SS_Theo_B_th76],0.203
13,UCCUGCAAUCUGCCACGAAAGUGGGUUGAUACCAGAGUCGAAAGACUCCCUUGGCAGCGAGUGAUGUUCGUUGCAGGUGUUUAAA [MatMod 11 - Jieux - Exclusion - Theophylline A],0.174
14,AUUUGUUUAUGUGAUACCAGACUUUGCAGUGAUGUUGCAUUUAUUUUAGAAGAAUAGUUUGUCCCUUGGCAGCACUAUGUAUUUA [JR_SSTheophyB_Sub006],0.0415
15,UGCACCAGUGAUGUUGGUCGGCACCGAGAUACCAGCUGAUCUCUUAGCCCUUGGCAGCUCUUUAUUCGCGUUAUCAGUUUCUUCG [theeternabot_sameState_KL_Theo_A_16],0.345
16,AUGCGACGUGCGGCCGCCACUCGGAUGCGAGUGAUGUUCGCGGGACGGACGCAAGUCCGUCAUUCGAGGACCGGGCAUCGGUGUA [#2 Same State - Tryptophan B Attempt #2 (HarryS)],0.139
17,GUUACGCAUGGAAGGAGCGCAGGCUCAACAAAUAGCUCAGUGAUGUUGAGCAAAUUAAAACUGCAGGUAGGUCGCCAUGUGUAAC [Ex Arginine B K4 22],0.422
18,AAUGCAUAGUGAAGGAGCGCGAUAAGCAGUGAUGUUGCUUAGCUAUUAUUCAUUUUUUUAACGCAGGUAGGUCGCACUUUGCAUA [JR_ExcArginiB_Sub016],0.144
19,CAAACGUGCGGUAGGUUCAAGCGCUGGGAAGGAGCGCAGAUGACUGCAGGUAGGUCGCCCAGUGAUGUUGGGCUUUCCACCUACG [Dilausma],0.0999
20,GGUUCCUCAGUGAUGUUGAGGUGACCUCGGCAGGAUAUAGGCAUUACUAGAAGGGCCAAAAGAAUCCUGUGCAGCAACACAGGGA [Usrasoza],0.262
21,AGGAGCGUGCGAUGGAAAUCGCACGCUCCUCGAGGACCGGUACGGCCGCCACUCGCUCGCGCCGAGUGAUGUUCGGCCGGCGAAG [#2 Same State - Tryptophan A Attempt #16 (HarryS)],0.0828

# Source: the supplement of paper PMC9170038
